Results: patent US11781164B2, “Demethylation of reticuline and derivatives thereof with fungal cytochrome P450” (priority 2017, dated 2023)

B1: Lr_P450_co: P450 from Lichtheimia ramosa, codon optimized for S. cerevisiae (protein, listed as Lichtheimia ramosa)
chain: MTEIKEHIYRYRHYIGVAAAVALVCQQVYYRIFRIPKNLRHIPAIPYGQQLKALRSDEALTSRTKRLVFPLLSKCNGVYLNRMPFKWTIYVADPEIARAILFKPEFGHKTRSVTDSLDKNSSLFEFVGDDNIAIVNGHEWKEQRKIMNPAFHRATPVGMFGSLMPKVFRLVEEQPTLPALDLMQKLTLDALGKSVFGFEFGALDDPDSVWVKTYRQVFDSFTDVFSLVFPRLDPIYRYFSAKHREQYNAVYKLIDLLDGMADKKRSMLQDASNSDIKDVPDHEKDLLQLMLEAELRGEGSWTKRELRHNMAIFFVAGQDTTSHALTFCLYLLAKNQDIQKKAREEILNVFGDEPKDVFPTLEDCKKLNYLDMVIKESMRIYPPANDVLARDVNEDLNVKGVFIPKGSMVSVDIHALHHRPDLWHEPDKFNPDRFLPGGEHDSHVGVTYAPFSSGSRQCIALKFATMQQRVVLSMLLRKYEWELPKDSKHKDSIQFQIPFNIAPKDLELTFHKRY
modifications: codon-optimized
B2: P450_DN12791_co: P450_DN_12791 from T. piriforme, codon optimized for S. cerevisiae (pEV32227) (protein)
chain: MAILQNLVLQSDQRHLGVVTAAVFLSAYALYRHESKKELGNECPTVPYTNPMFGSTDEYRKNPAAFVEKWSAALGPVFRVHIFGRMQTVVSGRYVREVLFNDNFSFVEGIRTRFDLRLLTGIPNSHLNDKDVREVVVKSLTAQMKKYTPRAVHYLSVGLQEALGDLKDPRTLDNLFLTVQNMVAKASASIFVGEELCNNIELVDTFKHVTSDIGSEIRLDNTWLEFFKTINQIRMWYVGKHSPRVTKHRRQLIQAMAPEIDRRLQGLAGNDPSWTRPEDILQEIMENYPSPSTVPADIYTYYANWMIVLIFASVHTTTEHATIVLYRLLQQPELIDELLQEQKEALGQGTVFTGEVIRKLVKLDSVCRESLRIKNEYFGLPHRNMSHENISLSNGVVIKPGDNVMLNVWTNHHDSDLQKDVHGNHDKFEPFRYVNADRPATKIGDDYLIFGEGKHACPGRWFALQEIKTIVSVLIRDYTLTPCGPIVFPSGTSTGIPSGEVTIQRKSEV
modifications: codon-optimized; Thamnostylum piriforme
B3: Hs_CYP2C8: Cytochrome P450 2C8 (P10632), Homo sapiens (protein, UniProt P10632 1-490, looked up)
Cytochrome P450 2C8: MEPFVVLVLCLSFMLLFSLWRQSCRRRKLPPGPTPLPIIGNMLQIDVKDICKSFTNFSKVYGPVFTVYFGMNPIVVFHGYEAVKEALIDNGEEFSGRGNSPISQRITKGLGIISSNGKRWKEIRRFSLTTLRNFGMGKRSIEDRVQEEAHCLVEELRKTKASPCDPTFILGCAPCNVICSVVFQKRFDYKDQNFLTLMKRFNENFRILNSPWIQVCNNFPLLIDCFPGTHNKVLKNVALTRSYIREKVKEHQASLDVNNPRDFIDCFLIKMEQEKDNQKSEFNIENLVGTVADLFVAGTETTSTTLRYGLLLLLKHPEVTAKVQEEIDHVIGRHRSPCMQDRSHMPYTDAVVHEIQRYSDLVPTGVPHAVTTDTKFRNYLIPKGTTIMALLTSVLHDDKEFPNPNIFDPGHFLDKNGNFKKSDYFMPFSAGKRICAGEGLARMELFLFLTTILQNFNLKSVDDLKNLNTTAVTKGIVSLPPSYQICFIPV
B4: Hs_CYP3A5: Cytochrome P450 3A5 (P20815), Homo sapiens (protein, UniProt P20815 1-502, looked up)
Cytochrome P450 3A5: MDLIPNLAVETWLLLAVSLVLLYLYGTRTHGLFKRLGIPGPTPLPLLGNVLSYRQGLWKFDTECYKKYGKMWGTYEGQLPVLAITDPDVIRTVLVKECYSVFTNRRSLGPVGFMKSAISLAEDEEWKRIRSLLSPTFTSGKLKEMFPIIAQYGDVLVRNLRREAEKGKPVTLKDIFGAYSMDVITGTSFGVNIDSLNNPQDPFVESTKKFLKFGFLDPLFLSIILFPFLTPVFEALNVSLFPKDTINFLSKSVNRMKKSRLNDKQKHRLDFLQLMIDSQNSKETESHKALSDLELAAQSIIFIFAGYETTSSVLSFTLYELATHPDVQQKLQKEIDAVLPNKAPPTYDAVVQMEYLDMVVNETLRLFPVAIRLERTCKKDVEINGVFIPKGSMVVIPTYALHHDPKYWTEPEEFRPERFSKKKDSIDPYIYTPFGTGPRNCIGMRFALMNMKLALIRVLQNFSFKPCKETQIPLKLDTQGLLQPEKPIVLKVDSRDGTLSGE
B5: Mc_S2JT25_co: codon-optimized cytochrome P450 S2JT25 from Mucor circinelloides (protein)
chain: MTLIASYNQTLLERVISVVRKNKTSYIGMAILCVVLQQVYASFTVPPKYLRRYPTVSFFEMMKSFYRKESVLNRNKRLVTPLTNAGHGFYVCRIPLDWTIYVTDPIAAKTLLLKTDNFPKSHAIFGALGESSPAVKFMGSENVAVSNGEMWKKQRKIMNPAFHRSQPVKLFGGVMPDLFALIDQDPEHVFVAPRMKSFALDALGLSAFGFDFQSLKGDPEGWTSKYNTVISTLFNPFINLFAKYDFLIKYISPERRRVIKATDEFNVMLSNLADKRRQEILDGEKKDMAENEKDLLTLMIEADIREGVETTTTELRHNMAIFFLAGHDTTANTLALCLYQLAKHKHVQKKARQEVLDILGDDPCDVTPTLEDLKKLNYVNMVIKENLRRNSPVDNLMARDTHQDIDLNGTFIPKGSKVTVNVASIHLNPKIWHDPESFIPERFEPGGEYDGHDGFTWIPFSNGSRQCLGLNFSLTEQRVVLCMLLKRYEIEIPKDSIHYNEIVFDKPFTFAPQSLELSFKKRY
modifications: codon-optimized; Mucor circinelloides

Tests used:
[1] = tested on: Cunninghamella echinulata ATCC 9244; test: Fungal bioconversion of thebaine to northebaine by Cunninghamella echinulata cultures; type: cell-based; settings: 0.5 mg/ml thebaine added after 48 h of growth; eleven days after thebaine addition; supernatant, LC-MS
Description: (§1) Cunninghamella echinulata ATCC 9244 was propagated on potato dextrose agar at room temperature. Mature cultures on plates (7-10 days) were used for the preparation of concentrated spore suspensions. Spores were harvested by flooding the lawn culture with a sterile solution containing 0.9% sodium chloride and 0.01% Tween 80 (10 ml/plate), scratching them from the hyphae with the aid of a sterile loop and filtering the suspension through sterile cotton to remove hyphal fragments. Thamnostylum piriforme ATCC 8992 was propagated on malt extract agar (CM0059) at room temperature and spore suspensions were prepared as indicated above. […]
(§2) Media was inoculated with 0.25 ml of freshly-prepared spore suspensions. […] Eleven days after thebaine addition, supernatants were collected and analyzed by LC-MS. […] Thebaine and northebaine were monitored in the supernatants, reaching a conversion level of 25% on day 12 after substrate addition (FIG. 2).

[2] = tested on: Thamnostylum piriforme ATCC 8992; test: Fungal bioconversion of thebaine to northebaine by Thamnostylum piriforme cultures; type: cell-based
Description: as §1, §2

[3] = tested on: codeine; test: In vitro N-demethylation of codeine by mammalian cytochrome P450s in crude yeast cell lysates; settings: crude cell extract with human CPR and cytochrome b5; 0.2 mM substrate, pH 7, 30° C., approximately 20 hours; compared to negative control strain without cytochrome P450s
[4] = tested on: thebaine; test: In vitro N-demethylation of thebaine by mammalian cytochrome P450s in crude yeast cell lysates; settings: crude cell extract with human CPR and cytochrome b5; 0.2 mM substrate, pH 7, 30° C., approximately 20 hours; compared to negative control strain without P450s
[5] = tested on: oripavine; test: In vitro N-demethylation of oripavine by mammalian cytochrome P450s in crude yeast cell lysates; settings: crude cell extract with human CPR and cytochrome b5; 0.2 mM substrate, pH 7, 30° C., approximately 20 hours; compared to negative control strain without cytochrome P450s
[6] = tested on: salutaridine; test: In vitro N-demethylation of salutaridine by mammalian cytochrome P450s in crude yeast cell lysates; settings: crude cell extract with human CPR and cytochrome b5; 0.2 mM substrate, pH 7, 30° C., approximately 20 hours; compared to negative control strain without cytochrome P450s
[7] = tested on: thebaine; test: Conversion of thebaine by demethylases heterologously expressed in Aspergillus nidulans; settings: 0.5 mM thebaine, Minimal Medium pH 7, 84 hours; supernatant, LC-MS
[8] = tested on: thebaine; test: In planta conversion of thebaine by transient expression of demethylases and CPRs in Nicotiana benthamiana leaves; settings: co-expressed with CPR_DN10898_c0_g1_i1_co or Cel_CPR_co; leaves re-infiltrated with 0.5 mM thebaine after 4 days, measured 1 day after
[9] = tested on: thebaine; test: Bioconversion of thebaine (N-demethylation to northebaine) by S. cerevisiae expressing cytochrome P450s and CPRs, LC-MS; settings: 0.5 mM thebaine
[10] = tested on: oripavine; test: Bioconversion of oripavine (N-demethylation to nororipavine) by S. cerevisiae expressing cytochrome P450s and CPRs, LC-MS; settings: 0.5 mM oripavine
[11] = tested on: salutaridinol; test: In vitro N-demethylation of salutaridinol by mammalian cytochrome P450s in crude yeast cell lysates; settings: crude cell extract with human CPR and cytochrome b5; 0.2 mM substrate, pH 7, 30° C., approximately 20 hours; compared to negative control strain without cytochrome P450s
[12] = pH 7, co-expressed with Cel_CPR_co, 72 h
[13] = pH 7, 72 h, co-expressed with native or codon-optimized T. piriforme CPRs or Cel_CPR

Row | Molecule | in vitro N-demethylation activity on codeine [3] | in vitro N-demethylation activity on Thebaine [4] | in vitro N-demethylation activity on oripavine [5] | in vitro N-demethylation activity on salutaridine [6] | northebaine production in Aspergillus nidulans vs vector control [7] | other results
1 | COC1=CC=C2[C@H]3Cc4ccc(OC)c5c4[C@@]2(CCN3C)[C@H]1O5 [Thebaine, thebaine] |  |  |  |  |  | conversion of thebaine to northebaine [1]: 6%; conversion of thebaine to northebaine ([2]; 0.5 mg/ml thebaine added after 48 h of growth, eleven days after thebaine addition, supernatant, LC-MS): 16%; conversion level of thebaine to northebaine ([2]; new T. piriforme cultures, day 12 after substrate addition): 25%
2 | Hs_CYP3A4: Cytochrome P450 3A4 (P08684), Homo sapiens | detected | detected | detected | detected |  | 
3 | B1 |  |  |  |  | not apparent | northebaine levels in N. benthamiana leaves vs negative P19 control [8]: clear increase in northebaine; activity towards thebaine, converting it to northebaine ([9]; pH 7, 72 h, co-expressed with CPR_DN5866_c0_g1_i1_Cd9, CPR_DN10898_c0_g1_i1_1A or Cel_CPR_co (at least one of the tested CPRs)): performing the best conversion of thebaine into northebaine; northebaine titer [9, 12]: more than 7 mg/L; northebaine titers higher compared to P450_DN15259_co [9, 12]: 2 fold
4 | B2 |  |  |  |  | production of northebaine was achieved | thebaine N-demethylation activity ([9]; pH 7, co-expressed with Cel_CPR_co, 72 h, no significant difference between codon optimized and non-codon optimized versions): lower; nororipavine titers [10, 12]: highest nororipavine titers
5 | B3 | detected | detected | detected | detected |  | in vitro N-demethylation activity on salutaridinol [11]: detected
6 | B4 | detected | detected | detected | detected |  | 
7 | B5 |  |  |  |  | production of northebaine was achieved | northebaine levels in N. benthamiana leaves vs negative P19 control [8]: clear increase in northebaine; northebaine amount compared to Lr_P450_co [9, 13]: yielded the highest northebaine amount; amount of nororipavine compared to Lr_P450_co [10, 13]: resulted in the highest amount of nororipavine
